Measurements reported in the supplement of paper PMC10567573.

B1: CDKN1A (parent)
chain: GRKRRQTSMTDFYHSKRRLIFSKR
B2: TRIM9 (parent)
chain: CVQCKMPVCYQCLEEGKHSSHEVK

Variants of: B1
Assay: protein stability index of a GFP-peptide fusion (GPS, HEK-293T) (PSI 1-6); higher = more stable
Conditions: c terminus: a fixed tail appended
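Note: lentivirally expressed fusions sorted by FACS into six bins by GFP to DsRed ratio, PSI derived from sequencing read proportions per bin multiplied by bin number.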

Protein stability index: each site, then its substitutions
M9: N 3.29; P 2.69; R 3.05; S 3.08; T 1.91; V 2.96; W 3.37
T10: A 1.75; C 3.68; F 3.46; G 2.85; H 2.93; K 2.52; L 2.45; M 2.38; P 2.48; R 2.39; S 2.54; W 2.16; Y 2.53
D11: A 2.37; F 2.51; H 1.82; I 2.12; K 2.77; L 2.29; M 3.13; N 2.4; P 3.34; Q 2.89; R 3.33; S 3.06; T 2.2; V 2.44; W 2.21; Y 2.07
F12: A 3.27; C 2.3; D 3.14; E 3.15; G 3.04; H 1.61; K 2.36; P 3.34; Q 2.46; R 2.73; S 2.42; T 2.78; V 3.38; Y 2.17
Y13: C 3.2; D 4.24; E 3.73; F 3.27; G 3.02; H 3.22; K 2.66; M 2.33; N 3.25; P 3.53; Q 3.92; R 3.93; S 3.57; T 3.69; V 2.79; W 2.7
H14: C 2.43; E 3.45; F 2.96; I 2.72; L 3.02; M 3.3; N 3.62; P 4.57; Q 3.39; R 3.52; S 2.34; W 2.08; Y 4
S15: A 2.47; C 2.1; F 3.02; L 1.78; M 1.92; N 3.16; P 2.59; R 3.43; T 2.44; W 3.71; Y 3.78
K16: A 3.51; C 3.39; E 3.76; F 2.28; G 2.62; H 2.96; I 3.82; N 2.99; P 2.07; Q 2.83; R 4.25; T 4.09; V 3.12; W 3.97; Y 2.93
R17: A 2.13; C 2.76; D 3.57; E 3.75; F 2.19; G 2.04; H 2.64; I 2.97; K 3.87; M 3.08; N 3.38; P 2.62; Q 3.46; S 3.19; T 3.02; V 4.34; W 2.28
R18: A 3.35; C 2.37; D 2.48; F 2.78; G 2.8; H 2.15; K 2.64; L 3.13; M 1.86; N 2.76; P 2.11; Q 1.47; S 2.77; T 2.45; V 2.93
L19: C 2.81; F 2.88; G 2.71; H 3.78; I 2.65; K 3.86; M 3.98; N 3; P 2.14; Q 3.85; R 2.77; S 3.31; W 3.25; Y 3.91
I20: A 3.46; C 2.93; D 2.84; F 3.1; K 2.99; M 2.86; N 3.51; R 2.15; S 2.5; T 2.86; W 2.3
F21: A 2.4; C 3.58; D 3.79; E 2.62; G 3.13; H 3; I 3.27; K 3.14; L 3.08; M 3.48; N 3.63; P 1.99; S 3.66; T 3.22; W 3.45; Y 3.38
S22: A 3.99; C 2.35; D 2.17; I 2.53; M 4.04; N 2.57; Q 3.09; R 2.79; T 2.87
K23: A 3.19; D 2.95; F 3.02; L 1.96; N 2.3; P 2.48; Q 1.58; S 2.78; T 3.3; W 2.87; Y 2.74
R24: A 3.13; C 3.93; D 3.29; E 2.67; F 2.24; G 3.52; H 2.4; I 2.91; K 2.24; L 3.19; M 2.17; N 3.1; P 3.22; Q 3.2; S 3.62; T 2.21; V 2; W 3.26; Y 2.91

Variants of: B2
Assay: as above
Conditions: c terminus: a fixed tail appended

Protein stability index: each site, then its substitutions
G16: I 3.25; K 3.57; M 3.71; T 3.83; P 3.9; L 3.49; V 3.62
K24: A 4.28; H 3.92; N 3.89; F 2.85; G 3.19; S 3.71
C4: L 3.68; S 3.23; I 2.44; T 2.93; M 3.37; G 3.15
H21: G 4.16; C 4.1
Q3: H 4.52; N 4.49; D 3.91; K 3.73; T 3.56
Q11: H 3.2; C 4.83; S 3.67
S19: K 3.9; L 3.89; D 3.8; I 3.4
H18: M 3.93; D 4.46; K 3.7; C 3.79; T 4.11; Y 3.55; Q 3.47
E15: W 2.72; S 3.81; K 3.67; C 4.14; M 3.75
P7: Q 3.83; R 3.51; W 3.18; M 4.33; I 3.69; H 3.23
Y10: F 4; M 4.08; N 4.27; W 2.51; I 3.71; A 4.26; H 4
M6: S 4.97; D 4.71; I 3.4; Q 4.36; E 4.37; C 3.73
K17: C 3.47; G 4.38; Y 3.54; D 2.88; R 2.96; S 3.42; M 3.3
C12: K 4.8; V 3.45; P 3; M 3.7
C1: F 2.58; V 3.23; E 3.95; G 2.88; P 2.86
E22: W 3.11; P 3.33; I 3.8; N 3.67; T 4
V8: H 4.89; K 5.1; Q 4.33
S20: C 4.32; L 4.43; H 4.3; E 3.98; T 4.07; Y 3.24; M 4
K5: D 3.75; F 2.52; W 3.03; N 4.04; C 3.84
V2: R 3.8; E 3.92; Y 3.71; N 3.46; Q 4.04; M 3.67
C9: I 3.18; S 4.24; R 3.31; A 4.19
V23: R 3.24; E 4.28; N 3.98
E14: S 3.68; C 4.34
L13: G 4.81; R 4.13
